Assays:
[1] = target: S309; assay: SPR
[2] = target: R. shameli ACE2‐mFC (Rhinolophus shameli); assay: SPR

Substance | Kd [1] [µM] | Kd [2] [µM]
RshSTT182/200 receptor binding domain (RBD) (domain or fragment) | 0.00375 | 
SARS‐CoV‐2 RBD (from UniProt P0DTC2 319-541) (domain or fragment) |  | 6.64

— article PMC9877840
